Source: IntAct's records for PubMed 15086532

B1: Delta-type opioid receptor (Homo sapiens), P41143 (parent)
chain: MEPAPSAGAELQPPLFANASDAYPSACPSAGANASGPPGARSASSLALAIAITALYSAVCAVGLLGNVLVMFGIVRYTKMKTATNIYIFNLALADALATSTLPFQSAKYLMETWPFGELLCKAVLSIDYYNMFTSIFTLTMMSVDRYIAVCHPVKALDFRTPAKAKLINICIWVLASGVGVPIMVMAVTRPRDGAVVCMLQFPSPSWYWDTVTKICVFLFAFVVPILIITVCYGLMLLRLRSVRLLSGSKEKDRSLRRITRMVLVVVGAFVVCWAPIHIFVIVWTLVDIDRRDPLVVAALHLCIALGYANSSLNPVLYAFLDENFKRCFRQLCRKPCGRPDPSSFSRAREATARERVTACTPSDGPGGGAAA

Variants of: B1
Details: with gasp1_human GPRASP1, Q5JY77
Chain of gasp1_human GPRASP1, Q5JY77 (Q5JY77 whole entry): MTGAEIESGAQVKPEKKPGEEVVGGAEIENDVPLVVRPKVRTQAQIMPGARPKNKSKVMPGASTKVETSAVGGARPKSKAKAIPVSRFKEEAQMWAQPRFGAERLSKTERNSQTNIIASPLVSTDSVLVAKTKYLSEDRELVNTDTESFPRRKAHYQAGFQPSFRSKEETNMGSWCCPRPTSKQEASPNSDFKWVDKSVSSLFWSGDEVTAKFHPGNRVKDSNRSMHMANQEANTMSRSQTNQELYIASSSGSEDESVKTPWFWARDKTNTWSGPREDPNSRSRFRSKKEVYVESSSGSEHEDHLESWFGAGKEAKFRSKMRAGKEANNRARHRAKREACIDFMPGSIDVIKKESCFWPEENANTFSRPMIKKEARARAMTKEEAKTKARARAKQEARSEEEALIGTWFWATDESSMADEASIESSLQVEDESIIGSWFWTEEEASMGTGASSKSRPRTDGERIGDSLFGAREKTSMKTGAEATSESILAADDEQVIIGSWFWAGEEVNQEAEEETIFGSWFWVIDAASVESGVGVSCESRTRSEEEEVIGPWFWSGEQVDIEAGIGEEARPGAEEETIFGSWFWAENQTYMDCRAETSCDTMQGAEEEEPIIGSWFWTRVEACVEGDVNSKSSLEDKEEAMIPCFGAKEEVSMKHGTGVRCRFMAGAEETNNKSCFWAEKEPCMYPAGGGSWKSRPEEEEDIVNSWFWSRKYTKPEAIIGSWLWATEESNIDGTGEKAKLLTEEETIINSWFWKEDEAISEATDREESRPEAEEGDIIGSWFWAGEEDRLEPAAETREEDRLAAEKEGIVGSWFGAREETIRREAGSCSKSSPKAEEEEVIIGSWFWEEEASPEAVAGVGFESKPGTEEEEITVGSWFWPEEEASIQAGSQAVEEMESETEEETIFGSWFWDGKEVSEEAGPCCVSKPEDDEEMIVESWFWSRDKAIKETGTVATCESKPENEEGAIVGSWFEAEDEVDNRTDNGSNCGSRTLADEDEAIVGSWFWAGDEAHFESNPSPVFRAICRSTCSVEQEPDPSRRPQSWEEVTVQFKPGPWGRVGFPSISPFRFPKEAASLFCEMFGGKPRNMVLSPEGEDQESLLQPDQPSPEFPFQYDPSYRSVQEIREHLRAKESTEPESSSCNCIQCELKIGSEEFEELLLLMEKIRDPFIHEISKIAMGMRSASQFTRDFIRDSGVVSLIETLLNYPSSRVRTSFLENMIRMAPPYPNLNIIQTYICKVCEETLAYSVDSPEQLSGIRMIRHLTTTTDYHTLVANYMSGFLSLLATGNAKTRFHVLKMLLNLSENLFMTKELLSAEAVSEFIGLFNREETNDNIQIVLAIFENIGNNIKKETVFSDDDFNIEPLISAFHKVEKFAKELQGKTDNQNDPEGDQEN

| effect of a mutation on the interaction | Variant |
| --- | --- |
| decreasing interaction | MEPAPSAGAELQPPLFANASDAYPSACPSAGANASGPPGARSASSLALAIAITALYSAVCAVGLLGNVLVMFGIVRYTKMKTATNIYIFNLALADALATSTLPFQSAKYLMETWPFGELLCKAVLSIDYYNMFTSIFTLTMMSVDRYIAVCHPVKALDFRTPAKAKLINICIWVLASGVGVPIMVMAVTRPRDGAVVCMLQFPSPSWYWDTVTKICVFLFAFVVPILIITVCYGLMLLRLRSVRLLSGSKEKDRSLRRITRMVLVVVGAFVVCWAPIHIFVIVWTLVDIDRRDPLVVAALHLCIALGYANSSLNPVLYAFLDENAARCFRQLCRKPCGRPDPSSFSRAREATARERVTACTPSDGPGGGAAA [F325A;K326A] |
